For assay [1], the target named is T1, Soluble recombinant human urokinase receptor (suPAR) (human, UniProt Q03405 23-299, limits assumed, biotinylated in the plate assays (sites not given)).
T1 construct: Only called a soluble truncated form of the urokinase receptor; also called soluble uPAR; biotinylated suPAR
Description: competition with phage displaying peptide 9 for soluble uPAR. Here is the method: (§1) The final anti-M13 conjugate dilution was 1:4000.
(§2) These concentrations were calculated based on the synthesis reactions.

The target of assay [2] is T1, Soluble recombinant human urokinase …. Description: competition with phage displaying peptide 9 for soluble uPAR; * quantity tested could have been lower. Here is the method: as §1, §2
Assay [3] shares this target. Description: alanine scan of peptide 9; competition with phage displaying peptide 9 for soluble uPAR.
Description: Streptavidin, 100 μl (0.1 mg/ml) in 50 mM Na₂CO₃, pH 9.6, was added to MaxiSorp wells (Nunc), incubated overnight at 4 C, and then washed with PBS/BSA. […] Competitive peptide inhibitors were added to the wells immediately prior to addition of the bacteriophage. The wells were incubated for one hour at room temperature, then washed and bound bacteriophage eluted with 6M urea in 0.1N HCl, pH 2.5. After 15 minutes, the urea eluate was brought to neutral pH by addition of 2M Tris base and the bacteriophage titers of input stocks and elutions measured by plaque formation assay. Results were expressed as the percent of input bacteriophage which bind to the wells. Alternatively, the amount of bacteriophage was determined in an ELISA where phage were preincubated with HRP-conjugated anti-M13 antibody for 30 minutes at room temperature before dispensing into wells prepared as above and incubated for one hour at room temperature. The final anti-M13 conjugate dilution was 1:4000. After washing, TMB substrate (100 μl/well) was added and color development was stopped with 0.8N H₂SO₄ (100 μl/well). The absorbance at 450 nm was then measured in a 96 well plate reader.
Approximately 10⁸ plaque forming units of the phage were used in the assay.

Square brackets hold non-standard residues; d marks the D form. Ends that are not written are not given here.

T1 sequence (Q03405 23-299 limits assumed): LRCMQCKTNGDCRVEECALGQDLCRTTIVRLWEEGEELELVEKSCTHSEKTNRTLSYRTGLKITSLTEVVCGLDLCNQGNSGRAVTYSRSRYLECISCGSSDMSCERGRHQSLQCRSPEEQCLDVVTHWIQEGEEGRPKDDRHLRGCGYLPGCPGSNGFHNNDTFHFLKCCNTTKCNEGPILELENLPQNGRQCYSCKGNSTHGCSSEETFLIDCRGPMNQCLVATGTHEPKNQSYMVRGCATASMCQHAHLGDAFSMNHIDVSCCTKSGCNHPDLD

B1: Analog 96 (peptide)
peptide: AEFFKLGPNGYVYLHS[dA]-NH2
modifications: N-terminus assumed
SMILES: CC(C)C[C@H](NC(=O)[C@H](CCCCN)NC(=O)[C@H](Cc1ccccc1)NC(=O)[C@H](Cc1ccccc1)NC(=O)[C@H](CCC(=O)O)NC(=O)[C@H](C)N)C(=O)NCC(=O)N1CCC[C@H]1C(=O)N[C@@H](CC(N)=O)C(=O)NCC(=O)N[C@@H](Cc1ccc(O)cc1)C(=O)N[C@H](C(=O)N[C@@H](Cc1ccc(O)cc1)C(=O)N[C@@H](CC(C)C)C(=O)N[C@@H](Cc1c[nH]cn1)C(=O)N[C@@H](CO)C(=O)N[C@H](C)C(N)=O)C(C)C
With B1, the “% Inhibition at 5 uM” value in assay [1] was 40%. Besides, the “% Inhibition at 2.5 uM” value in assay [2] came to 38%.

B2: Analog 94 (peptide)
peptide: AEFFKLGPNGYVYL[dH]SA-NH2
modifications: N-terminus assumed
SMILES: CC(C)C[C@H](NC(=O)[C@H](CCCCN)NC(=O)[C@H](Cc1ccccc1)NC(=O)[C@H](Cc1ccccc1)NC(=O)[C@H](CCC(=O)O)NC(=O)[C@H](C)N)C(=O)NCC(=O)N1CCC[C@H]1C(=O)N[C@@H](CC(N)=O)C(=O)NCC(=O)N[C@@H](Cc1ccc(O)cc1)C(=O)N[C@H](C(=O)N[C@@H](Cc1ccc(O)cc1)C(=O)N[C@@H](CC(C)C)C(=O)N[C@H](Cc1c[nH]cn1)C(=O)N[C@@H](CO)C(=O)N[C@@H](C)C(N)=O)C(C)C
Take B2: in assay [1], the “% Inhibition at 2.5 uM” value amounted to 36% and the “% Inhibition at 5 uM” value is 41%.

As for AEFFKAGPNGYVYLHSA-NH2 [Analog 69 (peptide 9, Leu at position 6 to alanine)], the binding result in assay [3] is on record as “no binding”.

As to AEFFKLGPNGYVALHSA-NH2 [Analog 76 (peptide 9, Tyr at position 13 to alanine)], the binding result in assay [3] is listed as “no binding”.

For AEFFKLGPNGAVYLHSA-NH2 [Analog 74 (peptide 9, Tyr at position 11 to alanine)], in assay [3], the binding result is on record as “no binding”.

For AEFFKLGPNGYAYLHSA-NH2 [Analog 75 (peptide 9, Val at position 12 to alanine)], in assay [3], the binding result is listed as “no binding”.

B3: Analog 88 (peptide)
peptide: AEFFKLG[dP]NGYVYLHSA-NH2
modifications: N-terminus assumed
SMILES: CC(C)C[C@H](NC(=O)[C@H](CCCCN)NC(=O)[C@H](Cc1ccccc1)NC(=O)[C@H](Cc1ccccc1)NC(=O)[C@H](CCC(=O)O)NC(=O)[C@H](C)N)C(=O)NCC(=O)N1CCC[C@@H]1C(=O)N[C@@H](CC(N)=O)C(=O)NCC(=O)N[C@@H](Cc1ccc(O)cc1)C(=O)N[C@H](C(=O)N[C@@H](Cc1ccc(O)cc1)C(=O)N[C@@H](CC(C)C)C(=O)N[C@@H](Cc1c[nH]cn1)C(=O)N[C@@H](CO)C(=O)N[C@@H](C)C(N)=O)C(C)C
On to B3, for which the “% Inhibition at 5 uM” value in assay [1] stood at 76%. Also, the “% Inhibition at 2.5 uM” value in assay [2] came to 80%.

B4: Analog 95 (peptide)
peptide: AEFFKLGPNGYVYLH[dS]A-NH2
modifications: N-terminus assumed
SMILES: CC(C)C[C@H](NC(=O)[C@H](CCCCN)NC(=O)[C@H](Cc1ccccc1)NC(=O)[C@H](Cc1ccccc1)NC(=O)[C@H](CCC(=O)O)NC(=O)[C@H](C)N)C(=O)NCC(=O)N1CCC[C@H]1C(=O)N[C@@H](CC(N)=O)C(=O)NCC(=O)N[C@@H](Cc1ccc(O)cc1)C(=O)N[C@H](C(=O)N[C@@H](Cc1ccc(O)cc1)C(=O)N[C@@H](CC(C)C)C(=O)N[C@@H](Cc1c[nH]cn1)C(=O)N[C@H](CO)C(=O)N[C@@H](C)C(N)=O)C(C)C
As for B4, in assay [1], the “% Inhibition at 2.5 uM” value was 47% and the “% Inhibition at 5 uM” value worked out at 59%.

B5: Analog 82 (peptide)
peptide: [dA]EFFKLGPNGYVYLHSA-NH2
modifications: N-terminus assumed
SMILES: CC(C)C[C@H](NC(=O)[C@H](CCCCN)NC(=O)[C@H](Cc1ccccc1)NC(=O)[C@H](Cc1ccccc1)NC(=O)[C@H](CCC(=O)O)NC(=O)[C@@H](C)N)C(=O)NCC(=O)N1CCC[C@H]1C(=O)N[C@@H](CC(N)=O)C(=O)NCC(=O)N[C@@H](Cc1ccc(O)cc1)C(=O)N[C@H](C(=O)N[C@@H](Cc1ccc(O)cc1)C(=O)N[C@@H](CC(C)C)C(=O)N[C@@H](Cc1c[nH]cn1)C(=O)N[C@@H](CO)C(=O)N[C@@H](C)C(N)=O)C(C)C
With B5, the “% Inhibition at 5 uM” value in assay [1] worked out at 41%. Besides, the “% Inhibition at 2.5 uM” value in assay [2] turned out to be 24%.

As usually defined, the % Inhibition is the drop in the measured response relative to a control, in per cent.

These data come from US20040265797A1 (CHIRON, published 2004).
